Article PMC6768852, “The structural basis for RNA selectivity by the IMP family of RNA-binding proteins”

How the values were obtained:
IMP2 KH34 [1] = molecular target: T1, IMP2 KH34 (UniProt Q9Y6M1 425-581); assay: EMSA; EMSA: 100 pM RNA, 10 mM Tris, 100 mM NaCl, 0.1 mM EDTA, 0.01 mg/mL tRNA, 50 ug/mL heparin, 0.01% IGEPAL CA630, room temperature, 3 h; pH not stated; conditions: protein: recombinant; tags: MBP
ZBP1 KH34 [2] = molecular target: T2, ZBP1 KH34 (UniProt Q9NZI8 405-553); assay: EMSA; text: tight to IMP2 and not to ZBP1; EMSA: 100 pM RNA, 10 mM Tris, 100 mM NaCl, 0.1 mM EDTA, 0.01 mg/mL tRNA, 50 ug/mL heparin, 0.01% IGEPAL CA630, room temperature, 3 h; pH not stated; conditions: protein: recombinant; tags: MBP
T2 sequence (Q9NZI8 405-553): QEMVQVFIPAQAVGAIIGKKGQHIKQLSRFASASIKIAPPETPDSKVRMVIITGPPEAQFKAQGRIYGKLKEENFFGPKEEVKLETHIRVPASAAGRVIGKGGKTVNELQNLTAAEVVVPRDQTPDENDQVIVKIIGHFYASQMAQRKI

IMP2 KH34 (NMR) [3] = molecular target: T3, IMP2 KH34 (NMR) (UniProt Q9Y6M1 425-581); assay: NMR titration; bound by KH4, intermediate exchange; EMSA: 100 pM RNA, 10 mM Tris, 100 mM NaCl, 0.1 mM EDTA, 0.01 mg/mL tRNA, 50 ug/mL heparin, 0.01% IGEPAL CA630, room temperature, 3 h; pH not stated; conditions: protein: recombinant; tags: 6xHis
T3 sequence (Q9Y6M1 425-581): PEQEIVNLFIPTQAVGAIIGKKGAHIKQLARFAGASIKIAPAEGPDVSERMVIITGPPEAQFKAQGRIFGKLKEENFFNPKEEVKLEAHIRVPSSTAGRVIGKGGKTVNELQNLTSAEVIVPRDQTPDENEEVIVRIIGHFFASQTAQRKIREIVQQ

ZBP1 KH34 [4] = molecular target: T2, ZBP1 KH34; assay: EMSA; EMSA: 100 pM RNA, 10 mM Tris, 100 mM NaCl, 0.1 mM EDTA, 0.01 mg/mL tRNA, 50 ug/mL heparin, 0.01% IGEPAL CA630, room temperature, 3 h; pH not stated; conditions: protein: recombinant; tags: MBP
IMP2 KH34 [5] = molecular target: T1, IMP2 KH34; assay: EMSA; tenfold higher affinity than WT zipcode; EMSA: 100 pM RNA, 10 mM Tris, 100 mM NaCl, 0.1 mM EDTA, 0.01 mg/mL tRNA, 50 ug/mL heparin, 0.01% IGEPAL CA630, room temperature, 3 h; pH not stated; conditions: protein: recombinant; tags: MBP
IMP2 KH34 (NMR) [6] = molecular target: T3, IMP2 KH34 (NMR); assay: NMR titration; bound by KH3, fast exchange; EMSA: 100 pM RNA, 10 mM Tris, 100 mM NaCl, 0.1 mM EDTA, 0.01 mg/mL tRNA, 50 ug/mL heparin, 0.01% IGEPAL CA630, room temperature, 3 h; pH not stated; conditions: protein: recombinant; tags: 6xHis

T1 sequence (Q9Y6M1 425-581): as above

B1: SELEX RNA #2 (ssRNA)
RNA: GGGCAGAGCGACGCAGUUUAGCCUGUGUAUACAGCGAACCCUUAGGAUGAUCGAUAGUUGCGUGCGUCGAAA
IMP2 KH34 [1]
  binding result: binds
ZBP1 KH34 [2]
  binding result: no binding

## UUUGGAAC (ssRNA) [GG element RNA (3' RE)]
IMP2 KH34 (NMR) [3]
  binding result: binds

## ACCGGACUGUUACCAACACCCACACCCC (ssRNA) [C28 beta-actin zipcode WT]
IMP2 KH34 [1]
  Kd: 161 ± 25 nM
ZBP1 KH34 [4]
  Kd: 15 ± 4.9 nM

B2: SELEX RNA #1 WT (ssRNA)
RNA: GGGCAGAGCGACGCAGUUUAGCGGCCUCAGCGAACCCUUUGGAACACUUCUCGAUAGUUGCGUGCGUCCAAA
IMP2 KH34 [1]
  binding result: binds
ZBP1 KH34 [2]
  binding result: no binding

## ACCGGACUGUUACCAACACCCUCACCCC (ssRNA) [C28 A22U]
IMP2 KH34 [5]
  binding result: binds

## CCCUCACC (ssRNA) [CA element RNA (5' RE)]
IMP2 KH34 (NMR) [6]
  binding result: binds
